Results reported in article PMC9088798, “An Approach to Derive Functional Peptide Inhibitors of Transcription Factor Activity”.
Residue numbers refer to the chain shown, from its start.

Tests used:
[1] = biological target: T1, HingeW (designed); assay: CD (281 nm DNA peak); EMSA: 150 mM KCl, 1 mM DTT, 1 mM EDTA, 10 mM Tris, 10 mM MgCl2, pH 8, 4 C, 30 min; CD: buffer with TCEP, pH 7.4, 30 min (rest not in material); details: protein: recombinant; tags: N-terminal MAS, C-terminal GAP-His6; blunt
T1 chain: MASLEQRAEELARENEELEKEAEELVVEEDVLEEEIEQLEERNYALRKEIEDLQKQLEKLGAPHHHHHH

[2] = biological target: T2, A-FosW (designed); assay: CD (281 nm DNA peak); 50 uM A-FosW, 5 uM DNA; EMSA: 150 mM KCl, 1 mM DTT, 1 mM EDTA, 10 mM Tris, 10 mM MgCl2, pH 8, 4 C, 30 min; CD: buffer with TCEP, pH 7.4, 30 min (rest not in material); details: protein: recombinant; tags: N-terminal MAS, C-terminal GAP-His6; blunt
T2 chain: T1 chain with V26E, V27Q, E29L, V31E, E33Q, E34A

[3] = biological target: cJun bZIP (human, UniProt P05412); assay: CD (281 nm DNA peak); 20 uM cJun, 5 uM DNA; DNA peak decreases by 55%; EMSA: 150 mM KCl, 1 mM DTT, 1 mM EDTA, 10 mM Tris, 10 mM MgCl2, pH 8, 4 C, 30 min; CD: buffer with TCEP, pH 7.4, 30 min (rest not in material); details: protein: recombinant; tags: C-terminal GAP; His-SUMO cleaved off; chain copies: 2; blunt
Chain of cJun bZIP (P05412 other isoform, or with tags, fused parts or gaps): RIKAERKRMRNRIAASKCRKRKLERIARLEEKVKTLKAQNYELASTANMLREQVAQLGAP

B1: TRE DNA (dsDNA)
DNA 1: GTCAGTCAGTGACTCAATCGGTCA
DNA 2: TGACCGATTGAGTCACTGACTGAC
binding result [1]: no binding
binding result [2]: no binding
binding result [3]: binds
